Measured values from patent publication US9359418B2, “Inhibitors of the T cell-specific alternative p38 activation pathway and methods of use” (The United States of America, as represented by the …, priority 2012, dated 2016).
No end group written: not given here.

Biological target: recombinant p38α (Homo sapiens, UniProt Q16539)
Assay: GST pull-down of recombinant p38α by truncated Gadd45α portions
Format: binding
Conditions: Gadd45α portions fused to GST, in vitro
Source text: This example describes a Gadd45α 71-85 polypeptide fused to a cell-penetrating peptide (11R) and its ability to block the T cell-specific alternative p38 activation pathway. The minimal region of Gadd45α capable of binding to p38 was identified by fusing various truncated portions of Gadd45α to GST and using the product to pull down recombinant p38α in vitro.

Sequence of recombinant p38α (Q16539 whole entry, the tested form may be a part): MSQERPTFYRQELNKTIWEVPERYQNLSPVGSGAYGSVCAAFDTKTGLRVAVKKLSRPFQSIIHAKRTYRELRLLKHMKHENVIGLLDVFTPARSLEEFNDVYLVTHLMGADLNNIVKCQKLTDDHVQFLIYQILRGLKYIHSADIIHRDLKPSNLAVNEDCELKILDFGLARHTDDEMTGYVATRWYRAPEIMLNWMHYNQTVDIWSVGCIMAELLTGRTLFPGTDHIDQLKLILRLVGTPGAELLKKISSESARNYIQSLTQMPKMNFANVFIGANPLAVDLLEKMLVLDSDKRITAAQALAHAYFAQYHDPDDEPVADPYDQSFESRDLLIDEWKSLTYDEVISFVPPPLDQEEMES

With “71-85 fragment: residues 71-85 of Gadd45α fused to GST, used to pull down recombinant p38α (LQIHFTLIQAFCCEN; cysteine pairing not given here; also: fused to GST; UniProt P24522 71-85, looked up, fragment)” the “pull down of recombinant p38α” value was “pulled down p38α as well as the full length protein”.
